Where no end group is shown, it is not given here. [ ]: non-standard residue; d: D form. Aib = CC(C)(N)C(=O)O

T1: human GIP receptor (human, UniProt P48546 22-466)
T1 sequence (looked up): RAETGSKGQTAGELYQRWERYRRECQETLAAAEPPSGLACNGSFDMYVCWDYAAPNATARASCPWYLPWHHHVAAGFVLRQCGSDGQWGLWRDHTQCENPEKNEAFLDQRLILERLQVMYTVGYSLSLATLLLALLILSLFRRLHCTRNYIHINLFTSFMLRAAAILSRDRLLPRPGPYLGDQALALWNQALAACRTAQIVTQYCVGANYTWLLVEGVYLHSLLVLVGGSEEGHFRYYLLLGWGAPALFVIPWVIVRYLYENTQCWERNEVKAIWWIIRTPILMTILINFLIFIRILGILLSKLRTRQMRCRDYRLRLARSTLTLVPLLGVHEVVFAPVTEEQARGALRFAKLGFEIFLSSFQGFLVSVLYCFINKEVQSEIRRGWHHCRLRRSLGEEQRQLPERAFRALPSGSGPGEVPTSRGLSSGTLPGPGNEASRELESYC

B1: GIP derivative of SEQ ID NO: 11 (peptide)
peptide: Y[Aib]EGTFISDYSIAMDAIAQQDFVNWLLAQKGKKNDWKHNITQC
modifications: not fully specified; printed as YAibEGT FISDYSIAMDAIAQQDFVNWLLAQKGKKNDWKHNITQC

In this assay the target is T1, human GIP receptor. The assay is described as follows: cell-based or functional assay.
Regarding Y[Aib]EGTFISDYSIYLDKQAA[Aib]EFVQWLIAGHPSSGAPPPC (not fully specified) [GIP derivative of SEQ ID NO: 26], the “In vitro activity (%) of GIP derivatives compared to human native GIP in human GIP receptors (EC50 from accumulated cAMP, CHO cells expressing the human GIP receptor)” value (“In vitro activity (%) of GIP derivatives” for short) came to 66.7%.
Next, Y[Aib]EGTFISDYSIYMDAIAQQDFVNWLLAGGPSSGAPPPSC (not fully specified) [GIP derivative of SEQ ID NO: 4]: 10.5%; Y[Aib]EGTFISDYSIYLDKQAAQEFVNWLLAQKPSSGAPPPSC (not fully specified) [GIP derivative of SEQ ID NO: 18]: 13.6%; Y[Aib]EGTFISDYSIALEKQAQQDFVNWLLAGGPSSGAPPPSC (not fully specified) [GIP derivative of SEQ ID NO: 17]: 111%.
Y[Aib]EGTFISDYSIYLDKQAA[Aib]EFVNWLL[Aib]GHPSSGAPPPSC (not fully specified) [GIP derivative of SEQ ID NO: 19]: the “In vitro activity (%) of GIP derivatives” value is 66.7%.
With Y[Aib]EGTFISDYSI[Aib]MDAIAQQDFVNWLLAGGPSSGAPPPSC (not fully specified) [GIP derivative of SEQ ID NO: 3], the “In vitro activity (%) of GIP derivatives” value was determined as 15.6%.
Next, Y[Aib]EGTFISDYSIAMDGIAQQDFVNWLLAQKPSSGAPPPSC (not fully specified) [GIP derivative of SEQ ID NO: 16]: 11.3%.
As to Y[Aib]EGTFISDYSIYLDAIAQQDFVNWLLAGGPSSGAPPPSC (not fully specified) [GIP derivative of SEQ ID NO: 6], the “In vitro activity (%) of GIP derivatives” value is 17.4%.
Y[Aib]EGTFISDYSIAMDAIAQQDFVNWLLAQKPSSGAPPPSC (not fully specified) [GIP derivative of SEQ ID NO: 1]: the “In vitro activity (%) of GIP derivatives” value worked out at 49.3%.
Next, Y[Aib]EGTFISDYSIYLDKQAA[Aib]EFVNWLLAQKC (not fully specified) [GIP derivative of SEQ ID NO: 13]: 31.1%; Y[Aib]EGTFISDYSI[Aib]LDKQAA[Aib]EFVNWLL[Aib]GGPSSGAPPPSC (not fully specified) [GIP derivative of SEQ ID NO: 21]: 123%; Y[Aib]EGTFISDYSIYLDKQAA[Aib]EFVNWLLAGHPSSGAPPPSC (not fully specified) [GIP derivative of SEQ ID NO: 22]: 71.6%.
For the molecule Y[Aib]EGTFISDYSI[Aib]LDKQAA[Aib]EFVNWLL[Aib]GHPSSGAPPPSC (not fully specified) [GIP derivative of SEQ ID NO: 24], the “In vitro activity (%) of GIP derivatives” value is 183%.
Then Y[Aib]EGTFISDYSIYLDAQAA[Aib]DFVNWLLAGGPSSGAPPPSC (not fully specified) [GIP derivative of SEQ ID NO: 8], with 1.9%; and Y[Aib]EGTFISDYSIAMDAIAQQDFVNWLLAGGPSSGAPPPSC (not fully specified) [GIP derivative of SEQ ID NO: 2], with 13.9%; and Y[Aib]EGTFISDYSIAMDKIAQQDFVNWLLAQKPSSGAPPPSC (not fully specified) [GIP derivative of SEQ ID NO: 15], with 31.1%.
Then Y[Aib]EGTFISDYSIYLDKQAA[Aib]EFVNWLL[Aib]GGPSSGAPPPSC (not fully specified) [GIP derivative of SEQ ID NO: 20], with 75.3%; and Y[Aib]EGTFISDYSIYLDAQAA[Aib]EFVNWLLAQKC (not fully specified) [GIP derivative of SEQ ID NO: 14], with 17.4%; and Y[Aib]EGTFISDYSIYLDAQAAKDFVNWLLAGGPSSGAPPPSC (not fully specified) [GIP derivative of SEQ ID NO: 9], with 2%.
Then Y[Aib]EGTFISDYSIYLDKQAA[Aib]EFVQWLI[Aib]GGPSSGAPPPSC (not fully specified) [GIP derivative of SEQ ID NO: 25], with 78.3%; and Y[Aib]EGTFISDYSIYLDAQAAKEFIAWLLAGGPSSGAPPPSC (not fully specified) [GIP derivative of SEQ ID NO: 10], with 13.9%; and B1, with 122%.
As to Y[Aib]EGTFISDYSIQMDAIAQQDFVNWLLAGGPSSGAPPPSC (not fully specified) [GIP derivative of SEQ ID NO: 5], the “In vitro activity (%) of GIP derivatives” value worked out at 12.1%.
On to Y[Aib]EGTFISDYSIYLDKQAQKEFVNWLL[Aib]GGPSSGAPPPSC (not fully specified) [GIP derivative of SEQ ID NO: 23], for which the “In vitro activity (%) of GIP derivatives” value stood at 87.6%.
Next, Y[Aib]EGTFISDYSIYLDAQAQQDFVNWLLAGGPSSGAPPPSC (not fully specified) [GIP derivative of SEQ ID NO: 7]: 19.6%.

Values taken from patent EP4342487A2, “PHARMACEUTICAL COMPOSITION COMPRISING GIP DERIVATIVE OR LONG-ACTING CONJUGATE THEREOF FOR PREVENTING OR TREATING PULMONARY DISEASE” (Hanmi Pharm. Co., Ltd., priority 2021, dated 2022).
